From publication PMC6926487

Target: GST-Rac1A, active (GTPγs-bound) (Dictyostelium) (UniProt P34144)
Assay: pull-down; GST-Rac on glutathione magnetic agarose beads, loaded with GTPγs; Dictyostelium lysate (50 mM Tris HCl pH 8, 100 mM NaCl, 30 mM MgCl2, 0.1% Triton X-100, 1 mM DTT) added for 1 hour at 4°C; immunoblot anti-GFP

immunoblot quantification of binding to active Rac1 (%): 1.9%
Substance: GFP-WASP (Dictyostelium Wiskott-Aldrich syndrome protein, wild type) (natural protein)
